The values below come from paper PMC12912276 (Nature cell biology, 2025).

For the assay, the target named is T1, His-SUMO-C-GB1 (SETD2 region C) (UniProt Q9BYW2 817-1322).
T1 sequence (looked up): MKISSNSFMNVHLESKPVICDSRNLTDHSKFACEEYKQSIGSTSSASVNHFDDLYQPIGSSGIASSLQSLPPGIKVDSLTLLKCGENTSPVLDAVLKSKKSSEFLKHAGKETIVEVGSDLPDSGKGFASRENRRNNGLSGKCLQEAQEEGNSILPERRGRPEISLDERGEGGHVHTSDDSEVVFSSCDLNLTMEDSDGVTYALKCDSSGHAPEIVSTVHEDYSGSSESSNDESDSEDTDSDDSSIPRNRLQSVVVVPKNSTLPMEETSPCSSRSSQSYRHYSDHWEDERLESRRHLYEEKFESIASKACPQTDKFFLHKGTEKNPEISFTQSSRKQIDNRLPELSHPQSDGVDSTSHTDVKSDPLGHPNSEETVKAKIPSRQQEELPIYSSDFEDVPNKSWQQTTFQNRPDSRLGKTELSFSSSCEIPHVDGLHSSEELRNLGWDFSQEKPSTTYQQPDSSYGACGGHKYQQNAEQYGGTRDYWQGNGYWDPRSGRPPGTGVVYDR
Kind of assay: pull-down.

B1: GST-lamin A-CT (387-664 a.a.) (domain or fragment, human, UniProt P02545 387-664, looked up)
chain: LRLSPSPTSQRSRGRASSHSSQTQGGGSVTKKRKLESTESRSSFSQHARTSGRVAVEEVDEEGKFVRLRNKSNEDQSMGNWQIKRQNGDDPLLTYRFPPKFTLKAGQVVTIWAAGAGATHSPPTDLVWKAQNTWGCGNSLRTALINSTGEEVAMRKLVRSVTVVEDDEDEDGDDLLHHHHGSHCSSSGDPAEYNLRSRTVLCGTCGQPADKASASGSGAQVGGPISSGSSASSVTVTRSYRSVGGSGGGSFGDNLVTRSYLLGNSSPRTQSPQNCSIM
For B1, the binding result is “binds”.
